PTT-LA levels data for 1 substance are collected here from patent US20250325622A1, “Autoimmune Disease Modulation Protocol” (priority 2024, published 2025).

The data set relates to lupus anticoagulants. Nature of the data set: PTT-LA Screen, lupus patient case study. The format is in vivo, human. As to conditions: coinciding with the first IV infusion, before the protocol; reference range <=40 sec. The protocol: On Jan. 5, 2023, the invention was administered to a person who was previously diagnosed in July 2019 with the autoimmune disease Lupus. This diagnosis was validated through a complete ANA Screen blood test panel conducted in July and subsequently in August of 2019 for a second confirmation. The patient was on standard therapies and medications typically prescribed for Lupus until December 2022, during which their symptoms progressively deteriorated. Of note, the patient voluntarily ceased all standard treatments for Lupus and other related auto-immune diseases one month prior to commencing the invention, under the supervision of their treating rheumatologist of the Arthritis & Rheumatic Disease Specialties center.
PTT-LA Screen: Tests for the presence of lupus anticoagulants, which are antibodies that can interfere with blood clotting and are commonly found in lupus patients.

As to “Inflectra: intravenous (IV) infusion treatment, a monoclonal antibody used to treat a range of inflammatory autoimmune diseases”, the PTT-LA levels entry is reported as “significant spike”.
